Source: US7422862B2, “Methods for identifying modulators of apoptosis” (The Burnham Institute, priority 2001, dated 2008)
Values belong to the substance of their own block, whether it stands above or below them. No end group written: not given here.

Assays:
CSM14.1 cells = experiment: Apoptosis of CSM14.1 cells induced by various stimuli; format: cell-based, rat
Protocol: (A-D) CMS14.1 neuronal cells were transfected with plasmids encoding Flag-HN peptide or Flag-control (27-amino-acid) peptide, together with GFP-encoding plasmid at 4:1 ratio. Cells were either cultured without further treatment (open bars) or subjected to various apoptotic stimuli for various times (dark bars), including (A) STS for 8 h (dark symbols=Flag-control; open symbols=Flag-HN), (B) Serum-deprivation for 72 h, (C) 10 joules/m2 Uvirradiation followed by 24 h culture, and (D) 50 ng/ml TNFa in […] for 24 h. Cells were then fixed and stained with DAPI to determine the percentage of apoptotic cells, evaluating=200 GFP-positive cells per sample (mean±SD; n=3). (inset) Lysates prepared from replicate cultures of transfected cells were normalized for total protein content and analyzed by immunoblotting using anti-Flag (top) and anti-tubulin (bottom) antibodies, confirming production of similar amounts of Flag-control and Flag-HN peptides. (E) SF268 cells were transfected with Humanin siRNA (HN-siRNA) (dark bars) or mutant siRNA containing two mismatches (mut-siRNA) as negative control (open bars). (Upper panel) After 72 hr, cell lysates were prepared and 100 ug was analyzed by immunoblotting using anti-HN and anti-tubulin (as a loading control) antibodies. (Lower panel) At 72 hr after siRNA transfection, SF268 cells were cultured with 0.1 μM STS for 8 hrs, then % apoptosis was determined (mean+std dev; n=3). (F) HN protects against Bax- but not Bak-induced apoptosis. CSM14.1 neuronal cells were co-transfected with pcDNA3-HA-Bax or pcDNA3-HA-Bak together with plasmids encoding with GFP (indicated by “-”), GFP-HN, or GFP-HN(C8P). Apoptosis (%) was measured 48 hrs later among GFP-positive cells. (G) Humanin inhibits STS-induced apoptosis in wild type HCT116 cells, but not HCT116 BAX -/- cells. HCT116 cells heterozygous or homozygous for BAX gene inactivation were transfected with plasmids encoding GFP (open bars) or GFP-HN (dark bars). After 24 h, cells were cultured without (C) or with STS (0.2 μM for wild type and 1.0 μM for Bax - /- cells) for 8 h, then % apoptosis was determined for GFP-positive cells (mean+std dev; n=3). (inset) Lysates from the cells were analyzed by immunoblotting (20 ug) using anti-Bax (top) and anti-Bid (bottom) antibodies. (H) HN prevents Bax-induced cell death in yeast. Cells were co-transformed with YEp51-Bax (encoding Bax under control of a GAL10 promoter) and plasmid control (C) or plasmids encoding Humanin or Humanin(C8P) fusion polypeptides. Cells initially grown in glucose-containing medium were streaked onto either glucose (top) or galactose (bottom) plates to suppress or induce Bax expression, respectively.
For these experiments, Flag-epitope tagged Humanin (Flag-HN) or Flag control polypeptides were expressed in CSM14.1 cells, an immortalized rat hippocampal neuronal cell line that has been used as a model for neuronal apoptosis studies (Kermer et al., Cell Death Differ. 9:405-413 (2002)). Apoptosis of CSM14.1 cells induced by Staurosporine (STS), UV-irradiation, and serum-deprivation was suppressed by Flag-HN (FIG. 6A-C). […] Note that at higher doses of STS (FIG. 6A), Humanin-mediated protection was overcome, indicating Humanin-insensitive mechanisms of apoptosis induction exist, even when using a mitochondria-dependent death stimuli.
Apoptosis assays were performed as follows. […]

[1] = previously reported (Hashimoto et al.); cited from earlier work
Bax [2] = biological target: T1, Bax (Homo sapiens, UniProt Q07812); experiment: Bax-induced apoptosis in transfected neuronal cells (DAPI staining); format: cell-based; design: expressed in transfected cells
T1 sequence (Q07812 whole entry, species assumed): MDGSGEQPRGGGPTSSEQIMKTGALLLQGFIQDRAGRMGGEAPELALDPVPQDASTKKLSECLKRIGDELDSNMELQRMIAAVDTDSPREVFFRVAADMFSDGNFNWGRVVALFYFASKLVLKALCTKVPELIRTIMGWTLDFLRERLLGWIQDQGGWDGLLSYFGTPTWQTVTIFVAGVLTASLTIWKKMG
Protocol: (A) HEK293T cells were transfected with pcDNA3-HA-Bax together with plasmids encoding GFP, GFP-HN(N), or GFP-HN(M). Cell lysates were immunoprecipitated with polyclonal anti-GFP antibody. Immunoprecipitates (IP) or cell lysates were analyzed by immunoblotting using anti-HA or anti-GFP antibodies, respectively. (B) CSM14.1 neuronal cells were co-transfected with pcDNA3-HA-Bax together with plasmids encoding GFP, GFP-HN(N), or GFP-HN(M). Percent apoptosis was determined 48 h later by DAPI staining (mean±SD; n=3).
(§1) Rat neuronal cell line CSM14.1 cells were transfected with various plasmids using the Lipofectamine reagent (Invitrogen). For transfection, 10×10^5 cells were plated per well using 6 well plates. Each well received 1 μg DNA plus […] of Lipofectamine. After 24 hours of transfection, the percentage of cell death was determined using 4′-6-diamidino-2-phenylindole (DAPI) staining. […] The data shown were obtained using the cytosolic form of Humanin; however, both cytosolic and mitochondrial forms of Humanin were tested and the results were the same.
(§2) Apoptosis assays were performed as follows. Both floating and adherent cells (after trypsinization) were collected 48 hr after transfection, fixed, and stained using 4′,6-diamidine-2′-phenylindole dihydrochloride (DAPI) for assessing apoptosis based on nuclear fragmentation and chromatin condensation (Fields and Song, supra (1989)).
Since Humanin co-immunoprecipitates with Bax but not Bak, the effects of Humanin over-expression on apoptosis induced by these members of the Bcl-2 family was compared. […] Similar results were obtained regardless of whether Humanin was fused to the N- or C-terminus of GFP, with both of these GFP fusion polypeptides localizing to the cytosol of cells.

Bax [3] = biological target: T1, Bax; experiment: Co-immunoprecipitation of GFP-Humanin fusion polypeptides with Bax in transfected cells; format: binding; design: expressed in transfected cells; host or cells: HEK293T; key to Bax binding: +: ability to bind Bax was determined by co-immunoprecipitation assay; −: lacked Bax-binding activity; details: for Bax binding: GFP-fusion polypeptides, co-immunoprecipitation
Source text: Humanin (HN) cDNA was sub-cloned into a Green Fluorescence Protein (GFP) expression vector GFP-Cl at the Xhol/Hind III sites, producing a GFP-HN fusion polypeptide. GFP and GFP-HN were transfected into 293T cells with pcDNA3-HA-Bax. Cell lysates from these cells were immunoprecipitated with anti-GFP antibody and subsequently blotted with anti-HA antibody. The lysates were also blotted with ani-GFP antibody to confirm polypeptide expression. […] The data shown were obtained using the cytosolic form of Humanin; however, both cytosolic and mitochondrial forms of Humanin were tested and the results were the same.
Co-immunoprecipitation assays were performed using Humanin polypeptides expressed as fusion polypeptides with the Green Fluorescent Protein (GFP) in human cells. Wild-type Humanin fused to GFP is referred to as GFP-HN and a mutant form of Humanin, where the cysteine at position 8 is replaced with proline, fused to GFP is referred to as GFP-C8P. […] Immunoblot analysis of lysates of the transfected cells confirmed production of all proteins. In addition, GFP-HN also coimmunoprecipitated endogenous Bax from cell lines, which contain relatively high levels of the Bax protein.
Immunoblotting and immunoprecipitations were performed as follows. Immunoblotting was performed as described previously (Fields and Song, Nature 340:245-246 (1989)). For co-immunoprecipitations, cells were cultured in 50 uM […] Valine Alanine Asparate fluoromethyl-ketone (zVAD-fmk) to prevent apoptosis. Cells were suspended in lysis buffer (50 mM Tris-HCl, pH7.4; 150 mM NaCl; 20 mM EDTA; 50 mM NaF; 0.5% NP-40; 0.1 mM Na3VO4; 20 ug/ml Leupeptin; 20 ug/ml Aprotinin; 1 mM DTT; and 1 mM PMSF). Lysates (200 ul diluted in 1 ml final volume of lysis buffer) were cleared by incubation with 15 ul of protein G-Sepharose 4B (Zymed) and then incubated with 15 ul of polyclonal antibody and 15 ul of protein G at 4° C. overnight. Beads were then washed 4 times with 1.5 mls lysis buffer before boiling in Laemmli sample buffer and performing SDS-PAGE/immunoblotting.
(§3) In order to explore whether a correlation exists between Humanin binding to Bax and Humanin-mediated suppression of apoptosis, Bax was co-expressed with various GFP-fusion polypeptides encoding wild-type, full-length Humanin or various truncation and site-specific mutants of Humanin (Table 1). Expression of all GFP-fusion polypeptides was confirmed by immunoblotting, and ability to bind Bax was determined by co-immunoprecipitation assay. Each Humanin mutant was scored for ability to suppress apoptosis induced by Bax over-expression by >50% using a 3:1 ratio of HN:Bax plasmid DNA. […] Based on these studies, an active region of the 24 amino-acid Humanin peptide, mapped to residues 7-17.

Bax [4] = biological target: T1, Bax; experiment: Suppression of apoptosis induced by Bax over-expression (Humanin mutants); format: cell-based; design: expressed in transfected cells; host or cells: HEK293T; details: GFP-fusion polypeptides, 3:1 ratio of HN:Bax plasmid DNA
Protocol: as §2, §3
Cell culture and transfections were performed as follows. CSM14.1, HCT116, Cos-7, and SF268 cells were cultured in DMEM high glucose media (Irvine Scientific, Santa Ana, Calif.) containing 10% fetal bovine serum (FBS). PC-3 cells were cultured with RPMI 1640 media containing 10% FBS. Transfection of cells was performed using SuperFect (Qiagen, Chatsworth, Calif.) or LipofectaminePLUS reagent ([…]).

t-Bid = biological target: T2, t-Bid (Homo sapiens, UniProt P55957); experiment: Bid-induced apoptosis in CSM14.1 cells (DAPI staining); format: cell-based; design: expressed in transfected cells; host or cells: CSM14.1 rat hippocampal neuronal cells; details: 24 hours after transfection
T2 sequence (P55957 61-195 limits assumed): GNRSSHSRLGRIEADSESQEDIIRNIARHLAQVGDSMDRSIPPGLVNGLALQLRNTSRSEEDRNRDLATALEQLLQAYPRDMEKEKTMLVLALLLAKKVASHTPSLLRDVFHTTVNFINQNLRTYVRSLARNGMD
Protocol: Apoptosis was examined by DAPI staining. The data shown were obtained using the cytosolic form of Humanin; however, both cytosolic and mitochondrial forms of Humanin were tested and the results were the same.
as §1

Substance: Flag-HN: Flag-epitope tagged Humanin expressed in cells (MAPRGFSCLLLLTSEIDLPVKRRA; also: Flag epitope tag; UniProt Q8IVG9 1-24, looked up)
apoptosis induced by UV-irradiation (CSM14.1 cells): suppressed
apoptosis induced by serum-deprivation (CSM14.1 cells): suppressed
apoptosis induced by TNF (CSM14.1 cells; Bax-independent death stimulus): not suppressed
apoptosis induced by Staurosporine (STS) (CSM14.1 cells; STS 8 h): suppressed
protection at higher doses of STS (CSM14.1 cells; higher doses of STS): overcome

suppression of apoptosis induced by Bax (Bax [2]; CSM14.1 or PC-3 cells, transient co-transfection): did not suppress
co-immunoprecipitation with tagged Bax (Bax [3]; 293T/HEK293T cells, anti-GFP immunoprecipitation): did not
Bax binding (Bax [3]): −
Substance: GFP-HN(C8P): mutant Humanin, cysteine at position 8 replaced with proline, fused to GFP (MAPRGFSPLLLLTSEIDLPVKRRA; also: fused to GFP; UniProt Q8IVG9 1-24, looked up, variant C8P)
anti-apoptotic activity when expressed in cells [1]: lack anti-apoptotic activity
Bax suppression (Bax [4]): − (failed to protect against Bax-induced apoptosis)

Bax-induced apoptosis (Bax [2]; CSM14.1 cells, 24 hours after transfection, DAPI): not able to decrease
Bid-induced apoptosis (t-Bid): not able to decrease
Substance: Humanin (C8A): mutant form of Humanin where the cysteine at position 8 was mutated to an alanine (MAPRGFSALLLLTSEIDLPVKRRA; also: fused to GFP; UniProt Q8IVG9 1-24, looked up, variant C8A)

Bax binding (Bax [3]): −
Substance: L9R: GFP-fusion of Humanin site-specific mutant L9R (MAPRGFSCRLLLTSEIDLPVKRRA; also: fused to GFP; UniProt Q8IVG9 1-24, looked up, variant L9R)
anti-apoptotic activity when expressed in cells [1]: lack anti-apoptotic activity
Bax suppression (Bax [4]): − (failed to protect against Bax-induced apoptosis)
